Like-named read-outs stand apart in the source and are kept apart here.
Legend:
[1] = IAsys optical biosensor, affinity of avidin and avidin mutants towards 2-iminobiotin; assay type: binding
Protocol: (§1) Reversibility of biotin binding was measured for avidin and the mutants with an IAsys optical biosensor (Laitinen, O. H. et al., FEBS Lett 461 (1999), 52-8). Protein samples were allowed to bind to a biotin-aminosilane cuvette in PBS containing 1 M NaCl. After the equilibrium was reached, biotin-containing buffer was added and the dissociation of the proteins was monitored. The affinities of the proteins towards 2-iminobiotin were determined with an IAsys optical biosensor (Marttila, A. T. et al. FEBS Lett 441 (1998), 313-7). Biotin-binding activity of the mutants Avd-ci and Avd-ccci after heat treatment was studied with a microtiter plate assay. Protein samples, 5 μg/ml concentration in PBS, were heated for various time periods at 99.9° C. and then chilled on ice. The samples were transferred to a Nunc Maxisorp-plate and incubated at 37° C. for 2 h. The wells were washed three times with PBS-Tween (0.05% v/v). After that the wells were blocked with PBS containing 1% BSA at 37° C. for 30 minutes and washed again with PBS-Tween. Next, biotinylated alkaline phosphatase (Sigma) in PBS, 1% BSA was added and incubated at 37° C. for one hour. Once again, the wells were washed with PBS-Tween and the PNPP substrate in DEA buffer (1 mg/ml) was applied to the wells. The absorbances at 405 nm were measured after incubation for 45 minutes.

[2] = tested on: biotinylated alkaline phosphatase; assay: Microtiter plate assay, biotin-binding activity after heat treatment at 99.9° C.; assay type: physicochemical; conditions: 99.9° C. for various time periods
Protocol: as §1, with “After that the wells were blocked with PBS containing 1% BSA at 37° C. for 30 minutes and washed again with PBS-Tween. Next, biotinylated alkaline phosphatase (Sigma) in PBS, 1% BSA was added and incubated at 37° C. for one hour. Once again, the wells were washed with PBS-Tween and the PNPP substrate in DEA buffer (1 mg/ml) was applied to the wells.” left out
Biotin-binding activity of the proteins after heat treatment was studied with a microtiter plate assay (Nordlund, H. R., Laitinen, O. H., Uotila, S. T., Nyholm, T., Hytönen, V. P., Slotte, J. P. & Kulomaa, M. S. (2003) J. Biol. Chem. 278, 2479-2483). […] The absorbencies at 405 nm were measured after incubation for 45 minutes.

[3] = Differential scanning calorimetry of the avidin mutants; assay type: physicochemical; conditions: for Tm: DSC, 100 mM Na-phosphate buffer pH 7.4
Protocol: In order to study the thermal stability of the purified avidin mutants, they were subjected to analysis by differential scanning calorimetry. A Nano II differential scanning calorimeter (Calorimetric Science Corporation, Provo, Utah) was used. […] The reference cell was filled with the same buffer that the sample proteins were dissolved in (100 mM Na-phosphate buffer pH 7.4). The thermograms were recorded as a function of temperature, between 25 and 130° C. at a temperature scan rate of 55.6° C./h. The baselines were subtracted and the transition midpoints (Tm) of the samples were calculated using proprietary software provided by the instrument manufacturer.

[4] = 2-iminobiotin surface; from Nordlund 2003; read-out: Kd detected from the equilibrium response data; cited from earlier work
[5] = cited from earlier work
[6] = previously published (Nordlund 2003; Gonzalez 1999)

B1: Avd-ccci: Avidin mutant D86C, I106C, I117C with six intermonomeric disulphide bridges (protein, UniProt P02701 25-152, looked up, variant D86C I106C I117C)
Avidin: ARKCSLTGKWTNDLGSNMTIGAVNSRGEFTGTYITAVTATSNEIKESPLHGTQNTINKRTQPTFGFTVNWKFSESTTVFTGQCFICRNGKEVLKTMWLLRSSVNDCGDDWKATRVGCNIFTRLRTQKE
With B1 as the molecule, how does the Kd [1] read?
Its Kd is 290 nM.

And the “biotin-binding activity after heat treatment” value [2]?
The value was “remained active, in the sense of binding biotin, longer than the wild-type avidin”.

What about the ΔTm ([3]; + biotin, difference in Tm compared to wt avidin + biotin) of the same molecule?
The ΔTm was 3.8 °C.

What about the Tm ([3]; + biotin (biotin:avidin molar ratio 3:1)) of the same molecule?
Its Tm is 122.0 ± 0.1 °C.

What about the Tm ([3]; without biotin) of the same molecule?
The Tm was 94.7 ± 0.5 °C.

What about the ΔTm ([3]; without biotin, difference in Tm compared to wt avidin) of the same molecule?
Its ΔTm is 9.2 °C.

And the Kd [4]?
The Kd was 290 nM.

What about the ΔTm ([5]; change in Tm upon biotin addition, previously published values) of the same molecule?
Its ΔTm is 27.3 °C.

What about the “DSC Tm (+biotin)” value [5, 6] of the same molecule?
The value was 122.0 ± 0.1 °C.

What about the “DSC Tm(−biotin)” value [5, 6] of the same molecule?
Its value is 94.7 ± 0.5 °C.

Reference: patent US20060281899A1, “Mutants of biotin binding protein” (priority 2002, published 2006)
